{
  "source": "the DeepSol protein solubility set",
  "data": [
    {"experiment": "soluble on expression in E. coli; label from the status in PepcDB or PDB records", "values": [
      {"sequence": "MDERDVLWVGVCAMPKKVESEPMQRILAALTSSRVAHFEPMIFDAKTLFERPIHKWPVCDALIAFHSEGFPLERAIAYAELRRPYCLNGLREQRMLLDRSKVYEVLARERVPVPRHIVVRHDGADVGRTDTRFVEHDDYIEYCGERLFKPFVEKPIDAEDHRVCIYYARPLYGRRRLFRKTANQSSVFEPGWRRVRREGAFIYEEFIPSEHQSDIKVYAVGPEYAYAERRKSPVVDGIVERNAHGKELRFPVELSTAERCVAATITAAFRQFVCGFDLIRHADGNAFYVNDVNGFSFVKGSQSYYESCGRILAEHLARECARSAAVDGE", "soluble on expression in E. coli": "not soluble"},
      {"sequence": "MDERFISFVCLLFTMEFQKYRTMHFPRDVYIGHDVLNRVLDVVDQNSRTRDVIIVTGNTTYELAGKKIVEILASSPYEVHLSFAGEANYENLKKIEEETNDVNAGIIIGVGGGTKIDLAKKLAYDKNLPFISIPTSPSHDGIASPRASLRRNGISYSEEGAMPIGVIADTSVMIKAPYRYLAAGAADVISNISAVKDWKLAHRLRGEEFSSSAAAMSEYSAQEVISQVGEIRKYDESSVWLVTKNILASGTAMAIAGNSRPGSGSEHLFAHALEAAGVNNMLHGEMCAMGTIVSLYLHDDNWQKIRDVFESLGVSVKARDYGLKEEVVIEALRRAHAIRPERYTILGESDMSYDAAVKALELTGII", "soluble on expression in E. coli": "not soluble"},
      {"sequence": "MDERWMVMKITIVFENHAGYRKGLIGYHGFSALVEANGYRVLVDTGTDGKVLLNNMSELGISPDDIDALFITHGHYDHTGGLRELLSARTEALDIYAHPGIFKRRLALKPKKREIGIPFTREELEELGGKFILSDKSKEILPGFISSGEIERITWDRAVGYFPDGSKDPVRDDMALIVEEGSKSVVITGCGHSGIINIAIHSKKLTNNRIAALIGGFHLKGIERSLLDEAVKKLRELEIEKLYPGHCTGIEEFAYLWSKFGNVEGIHVGKEIKILEHHHHHH", "soluble on expression in E. coli": "soluble"},
      {"sequence": "MDFDMIEEKKDSVIVRNVENFELKDIFDCGQCFRWHRQENGNYIGIAFEKVVEVQKIGEDVVIYNINEEEFKNVWSEYFDLYRDYGEIKKELSRDPLLKKSVDFGEGIRILRQDPFEILLSFIISANNRIPMIKKCINNISEKAGKKLEYKGKIYYAFPTVDKLHEFTEKDFEECTAGFRAKYLKDTVDRIYNGELNLEYIKSLNDNECHEELKKFMGVGPQVADCIMLFSMQKYSAFPVDTWVKKAMMSLYVAPDVSLKKIRDFGREKFGSLSGFAQQYLFYYARENNIQL", "soluble on expression in E. coli": "soluble"},
      {"sequence": "MDFLSREGSPISAELWEKIDEAVVSAAKKILTGRRFISIYGPLGAGIQAINVDNISELDETEENISVIRGRTYRHIPLINEDFSLLWRDLEFSEQMGLPVDLSSASRAATQCALREDKLIFYGNDELGYKGLLTEDGIVKFPISNWSEGENPFKDISIGLAKFIENGIVGRKALVVSPNLFVQLQRIQPGTGTTEYDRINKLLDGNIFSTPVLKDDKAVLVCSEPQNIDLVIGQDMITSYLETKNLNHYFRIMETILLRIKNKKAVIVFD", "soluble on expression in E. coli": "not soluble"},
      {"sequence": "MDFRANLQRQVKPKTVSEEERKVHSPQQVDFRSVLAKKGTSKTPVPEKVPPPKPATPDFRSVLGGKKKLPAENGSSSAETLNAKAVESSKPLSNAQPSGPLKPVGNAKPAETLKPMGNAKPAETLKPMGNAKPDENLKSASKELKKDVKNDVNCKRGHAGTTDNEKRSESQGTAPAFKQKLQDVHVAEGKKLLLQCQVSSDPPATIIWTLNGKTLKTTKFIILSQEGSLCSVSIEKALPEDRGLYKCVAKNDAGQAECSCQVTVDDAPASENTKAPEMKSRRPKSSLPPVLGTESDATVKKKPAPKTPPKAAMPPQIIQFPEDQKVRAGESVELFGKVTGTQPITCTWMKFRKQIQESEHMKVENSENGSKLTILAARQEHCGCYTLLVENKLGSRQAQVNLTVVDKPDPPAGTPCASDIRSSSLTLSWYGSSYDGGSAVQSYSIEIWDSANKTWKELATCRSTSFNVQDLLPDHEYKFRVRAINVYGTSEPSQESELTTVGEKPEEPKDEVEVSDDDEKEPEVDYRTVTINTEQKVSDFYDIEERLGSGKFGQVFRLVEKKTRKVWAGKFFKAYSAKEKENIRQEISIMNCLHHPKLVQCVDAFEEKANIVMVLEIVSGGELFERIIDEDFELTERECIKYMRQISEGVEYIHKQGIVHLDLKPENIMCVNKTGTRIKLIDFGLARRLENAGSLKVLFGTPEFVAPEVINYEPIGYATDMWSIGVICYILVSGLSPFMGDNDNETLANVTSATWDFDDEAFDEISDDAKDFISNLLKKDMKNRLDCTQCLQHPWLMKDTKNMEAKKLSKDRMKKYMARRKWQKTGNAVRAIGRLSSMAMISGLSGRKSSTGSPTSPLNAEKLESEEDVSQAFLEAVAEEKPHVKPYFSKTIRDLEVVEGSAARFDCKIEGYPDPEVVWFKDDQSIRESRHFQIDYDEDGNCSLIISDVCGDDDAKYTCKAVNSLGEATCTAELIVETMEEGEGEGEEEEE", "soluble on expression in E. coli": "soluble"},
      {"sequence": "MDFYYLPGSAPCRAVQMTAAAVGVELNLKLTDLMKGEHMKPEFLKLNPQHCIPTLVDNGFALWESRAIQIYLAEKYGKDDKLYPKDPQKRAVVNQRLYFDMGTLYQRFADYHYPQIFAKQPANPENEKKMKDAVGFLNTFLEGQEYAAGNDLTIADLSLAATIATYEVAGFDFAPYPNVAAWFARCKANAPGYALNQAGADEFKAKFLS", "soluble on expression in E. coli": "soluble"},
      {"sequence": "MDGHYEVSKSILINRSSPDVFAYVSHIKNQEHYSVWAKRDTNSIKTYRGRDGVVGFTATWKSEMKKVGQGEQEIKKIIPNKRIDLELRFFKPFEATDHVFMETIAQDEEETKVVWGFDGEMAYPVNFFLLFVDMEDVLGGDLETGLVNLKTILESKLEHHHHHH", "soluble on expression in E. coli": "soluble"},
      {"sequence": "MDGTMEDSEAVQRATALIEQRLAQEEENEKLRGDTRQKLPMDLLVLEDEKHHGAQSAALQKVKGQERVRKTSLDLRREIIDVGGIQNLIELRKKRKQKKRDALAASHEPPPEPEEITGPVDEETFLKAAVEGKMKVIEKFLADGGSADTCDQFRRTALHRASLEGHMEILEKLLDNGATVDFQDRLDCTAMHWACRGGHLEVVKLLQSHGADTNVRDKLLSTPLHVAVRTGQVEIVEHFLSLGLEINARDREGDTALHDAVRLNRYKIIKLLLLHGADMMTKNLAGKTPTDLVQLWQADTRHALEHPEPGAEHNGLEGPNDSGRETPQPVPAQLEHHHHHH", "soluble on expression in E. coli": "not soluble"},
      {"sequence": "MDGYQLTFSNNKRSDKSIVSEKLQRDCDPPITQKYFWSSGGHTFHFRAAAAEKNVTPFSTKMQGKYIKKKAM", "soluble on expression in E. coli": "not soluble"},
      {"sequence": "MDHPVQLSIENPAVSMDSTGQILWAVQSEIQAVYLRSLFEQKEANDGERLTLSVKNLGSSEISPQTLAHSSNGHFFMACGDGKYIVYTYKQYDAIALKIRHYGQGLEFVWAAHPNMFAVRESATNVKIKKNFKDHKSIRSDMMLEGISGGPLLALRSNDSLCFFDWESAALVRRIEITSKSVYWSDNREMVAICGDDSFYVFKYSAEAVANATEVTEDGIEDAFKVIGEQAEAVETGFWIGDCFIFTTALTINRINHYAGGEIVTVAHVDRPLCLLGYMAEDSRVYAVDKDLNVISYELFQSDLEYQTATMRRDIGTRGGPQICRICRLPSSANLPNLPSTANFKKVDLPNLPSSANFEICRTQYNFD", "soluble on expression in E. coli": "not soluble"},
      {"sequence": "MDIISKSGEGNKYTINSAIAFVAYASHIDINTTEFSKVLSGLRDFINDEAIRLGGKISDGSFNKCNGDWYEWLIGIRAIEFFLESETNFIVVKMPNATSFDVMSIYKSCLSEFIYDLRSKLSLNNVNLITSNPDFSIIDIRGRREELKSMLKDISFSNISLSTISEIDNLYKNFIDYAELEHIKSFLSVKTTFRPDRRLQLAHEGSLMKALYTHLQTRTWTINPTGIRYYAAATSIGNADVIGLKTVATHSITDVKSLPQSAVDEIFKINSVLDVDSCLSHILSS", "soluble on expression in E. coli": "soluble"},
      {"sequence": "MDIPIPTRQLFINGDWKAPVLNKRIPVINPATQNIIGDIPAATKEDVDVAVAAAKTALTRNKGADWATASGAVRARYLRAIAAKVTEKKPELAKLESIDCGKPLDEAAWDIDDVAGCFEYYADLAEKLDARQKAPVSLPMDTFKSHVLREPIGVVGLITPWNYPMLMATWKVAPALAAGCAAILKPSELASLTCLELGEICKEVGLPPGVLNILTGLGPEAGAPLATHPDVDKVAFTGSSATGSKIMTAAAQLVKPVSLELGGKSPLVVFEDVDLDKAAEWAIFGCFWTNGQICSATSRLILHESIATEFLNRIVKWIKNIKISDPLEEGCRLGPVVSEGQYEKILKFVSNAKSEGATILTGGSRPEHLKKGFFIEPTIITDVTTNMQIWREEVFGPVLCVKTFSTEEEAIDLANDTVYGLGAAVISNDLERCERVTKAFKAGIVWVNCSQPCFTQAPWGGVKRSGFGRELGEWGLDNYLSVKQVTQYISEEPWGWYQPPAKL", "soluble on expression in E. coli": "soluble"},
      {"sequence": "MDIPRIFTISESEHRIHNPFTEEKYATLGRVLRMKPGTRILDLGSGSGEMLCTWARDHGITGTGIDMSSLFTAQAKRRAEELGVSERVHFIHNDAAGYVANEKCDVAACVGATWIAGGFAGAEELLAQSLKPGGIMLIGEPYWRQLPATEEIAQACGVSSTSDFLTLPGLVGAFDDLGYDVVEMVLADQEGWDRYEAAKWLTMRRWLEANPDDDFAAEVRAELNIAPKRYVTYARECFGWGVFALIARLEHHHHHH", "soluble on expression in E. coli": "soluble"},
      {"sequence": "MDKKPSKKKVAIIGGGVAGSTIAMYLSKFDIEIDLFEQGTSLVNGPPICHLHAGGNLYREISDEQCIALLTESIQTAQFFPHSLNIRPTIIAVPKDDRAEASDLLPRLNLLQKHYLELIEQSKKNEVFGRPEDYFTTFTKQELFEIAKLEPTNQPRSMTEWMIPFAKTTDLEQIKYPVVIVQEYGLSVFRMASTAQLVLSEQSNVNLHLSCRVEKLNKQDNGNWFLSFSNSDTVTSCNFDYVINCAGFRTGIIDDLAQQQTKRLVEFKAAYVTHWNSDFFGKWPEVIFHGERGTPKGMAQLTPYPNGYFQLHGMTEEITLFKDGLSRSSELSSQPQLPEKFINKITNGWKESIQQERTEKAIKHLSQFISSFETASTAGKPLYGAQQIPGDDITLRAATINYDGHGYFRAEIVKASSAIECAKQIAQTIKLSTEINTLTQPSNDDVCHLAEQFAIERGYPVELAQTYLEHHHHHH", "soluble on expression in E. coli": "not soluble"},
      {"sequence": "MDKLDTLTLFVRIVERGSFSAAAADLGVSRPVATAAIKALEVSLGARLLHRTTRHVRPTAEGSLYYQRCVSILAALEEANRSAGGSISGTIRVDVAGNLARTLLLPALPQFLARYPDITLQIGESERDVDLVREGVDCVIRGGHLPDSEMICRPLAGLQEITCASPTYLARYGTPHTIEGLTGHVMIGFVSSRTQRTLPLSFTQDGRQSEVSLPCRLLTSDADVGAEAARLGFGLYQAPLPRLEADLASGALTEVLADFRPAPLPLSLLYPSNRQLSARVQVFIDWVTALMKPPLAQQASGRLK", "soluble on expression in E. coli": "not soluble"},
      {"sequence": "MDKLESNKKAPLYQQLYDAILNKVRSGEYQVGEKIPSEEQLMTIYGVSRVTVRNAIKQLVDENILIKRHGKGTFVSMPSYVESMTAGGSFTESGLKMNRKPTTKIISICLKKATGHVAEALGVEKATEVIVIERLRSLDNMPAIFEIDYFRKEDQFMLDLELTDTSLLDILRQYRGVIASYFDNIIEIALADEKLAEALAISEEEALVKINQTVVDNDNQILYFNEQYILSESYKVAIRSYNK", "soluble on expression in E. coli": "not soluble"},
      {"sequence": "MDKQKVALVLSMGGARGIAHIGVIEELLRHNFEITSIAGSSMGAMVGAMYASGKLEECKEWLYSWDKRKMWELADLTLSRDGLVKGDRFIKELKQIIPVMNIEDLPIPYVAMATDIVCDQEVRFDSGNLYDAIRATISIPMLFRPLRKDGMVLIDGGILNPLP", "soluble on expression in E. coli": "not soluble"},
      {"sequence": "MDKRLLKRLSAPLLAAALWTIPLHSHADTQPLTSQDTKLLTSQIVDQYAEHIFYNSGAVGMALVVIDNNQVVNRSFGETQPGNNIRPRPDSLIRIASITKLMTSEIMVKLADDGIVKLTDPLKKYAPKGVNVPSYSAKQPIRLLHLASHTSGLPREQPGGPQKRPVFTWPTKDNRWQWLKLAKVTVPPGVKAAYSNLAYDLLADALSRAAGKPYAHLLRDKITAPLGMKNTTLTPTAEQCKRLMIGVGSSRCGNTVAAAGSGGIYSTPEDMQHWMQQFLASDNSAPKRSAKREQALYFQRGDLVSLKGMDVAGQADALGLGWVYMAPKADLPGIMQKTGGGGGFITYMAMVPEKNIGVFVVVTRSQLTKFSNMSDGVNQLVAELVKNH", "soluble on expression in E. coli": "not soluble"}
    ]}
  ]
}
